The values that follow come from patent US20050187175A1 (published 2005).

The data set concerns the molecule itself. Kind of data set: non-reducing SDS-PAGE of whole cell extracts of transfected HEK293T cells.

B1: CPG15-2 (other)
chain: SEGPNRCDTIYQGFAECLIRLGDGMGRGGELQTVCRSWNDFHACASRVLSGCPEEAAAVWESLQQEARRAPHPDNLHILCGAPVSVRERIAGPETNQETLRATA
notes: also called mouse CPG15-2
In the case of B1, the binding result is “binds”.
